Key:
[1] = target: feline LFA-1 (CD11a/CD18 heterodimer) (feline); assay: cell binding assay on feline MCH-4 cells, purified antibody
[2] = target: feline LFA-1 (CD11a/CD18 heterodimer) (feline); assay: cell binding assay on feline MCH-4 cells, CHO supernatant, HRP anti-feline IgG
[3] = target: feline LFA-1 (CD11a/CD18 heterodimer) (feline); assay: cell binding assay on feline MCH-4 cells, CHO supernatant; against chimeric #1
[4] = target: feline LFA-1 (CD11a/CD18 heterodimer) (feline); assay: cell binding assay on feline MCH-4 cells, purified antibody; against chimeric #1
[5] = target: feline LFA-1 (CD11a/CD18 heterodimer) (feline, UniProt A0ABI8A8D3 24-1171; A0ABI7ZVN3 67-787); assay: cell binding assay on feline MCH-4 cells, CHO supernatant, HRP anti-feline IgG

B1: Felinized HC 3+Felinized LC 2 (#15) antibody: 7301 (Felinized HC 3) + 7303 (Felinized LC 2) (antibody, IgG1)
heavy: QVQLVQSGAEVRKPGASVKIFCKASGYTFTSYYIHWLRQTPEQGREWIGWIYVGDGNTRYNEKFQGRLTLTADKSTSTAYMELSSLRSADTAIYFCARGGNGYFDYWGQDTLVTVSSDIVMTQTPLSLSVTPGEPASISCRASQDVSTALNWYLQKPGQSPRLLIYWASNRHSGVPDRFSGSGSGTDYTLRISRVEADDVGVYYCQQHYSSSLTFGPGTKLEI
light: QVQLVQSGAEVRTPGASVKIFCKASGYTFTSYYIHWVRQSPAQGREWMGWIYVGDGNTKYNERFQGRLTLTADKSTSTAYMELSSLRSADTAMYFCARGGNGYFDYWGQGALVTVSSDIVMTQTPLSLSVTPGEPASISCRASQDVSTALNWYLQKPGQSPRLLIYWASNRHSGVPDRFSGSGSGTDYTLRISRVEADDVGVYYCQQHYSSSLTFGPGTKLEI
OD450 at 0.1 ug [1]: 0.86 OD450
OD450 at 1 ug [1]: 1.29 OD450
Relative antigen binding (normalized to parental antibody) (relative to parental) [2]: 0.3
fold less affinity than the chimeric [3]: 3 fold
Average fold change over chimeric [4]: 0.76 fold

B2: antibody #16: 7301 (Felinized HC 3) + 7304 (Felinized LC 3) (antibody)
heavy: QVQLVQSGAEVRKPGASVKIFCKASGYTFTSYYIHWLRQTPEQGREWIGWIYVGDGNTRYNEKFQGRLTLTADKSTSTAYMELSSLRSADTAIYFCARGGNGYFDYWGQDTLVTVSSDIVMTQTPLSLSVTPGEPASISCRASQDVSTALNWYLQKPGQSPRLLIYWASNRHSGVPDRFSGSGSGTDYTLRISRVEADDVGVYYCQQHYSSSLTFGPGTKLEI
light: QVQLVQSGAEVRTPGASVKIFCKASGYTFTSYYIHWVRQSPAQGREWMGWIYVGDGNTKYNERFQGRLTLTADKSTSTAYMELSSLRSADTAMYFCARGGNGYFDYWGQGALVTVSSDIVMTQTPLSLSVTPGEPASISCRASQDVSTALNWYLQKPGQSPRLLIYWASNRHSGVPDRFSGSGSGTDYTLRISRVEADDVGVYYCQQHYSSSLTFGPGTKLEI
Relative antigen binding (normalized to parental antibody) (relative to parental) [2]: 0.05

B3: antibody #6: 7299 (Felinized HC 1) + 7302 (Felinized LC 1) (antibody, IgG1)
heavy: QVQLVQSGAEVRKPGASVKIFCKASGYTFTSYYIHWLRQTPEQGLEWMGWIYVGDGNTRYNQKFQGRLTLTADKSTSTAYMELSSLRSADTAIYFCARGGNGYFDYWGQDTLVTVSSDIVMTQTPLSLSVTPGEPASISCRASQDVSTALNWYLQKPGQSPRLLIYWASNRHSGVPDRFSGSGSGTDYTLRISRVEADDVGVYYCQQHYSSSLTFGPGTKLEI
light: QVQLVQSGAEVRKPGASVKIFCKASGYTFTSYYIHWLRQTPEQGREWIGWIYVGDGNTRYNEKFQGRLTLTADKSTSTAYMELSSLRSADTAIYFCARGGNGYFDYWGQDTLVTVSSDIVMTQTPLSLSVTPGEPASISCRASQDVSTALNWYLQKPGQSPRLLIYWASNRHSGVPDRFSGSGSGTDYTLRISRVEADDVGVYYCQQHYSSSLTFGPGTKLEI
Relative antigen binding (normalized to parental antibody) (relative to parental) [2]: 0.05

B4: antibody #10: 7300 (Felinized HC 2) + 7302 (Felinized LC 1) (antibody)
heavy: QVQLVQSGAEVRKPGASVKIFCKASGYTFTSYYIHWLRQTPEQGLEWMGWIYVGDGNTRYNQKFQGRLTLTADKSTSTAYMELSSLRSADTAIYFCARGGNGYFDYWGQDTLVTVSSDIVMTQTPLSLSVTPGEPASISCRASQDVSTALNWYLQKPGQSPRLLIYWASNRHSGVPDRFSGSGSGTDYTLRISRVEADDVGVYYCQQHYSSSLTFGPGTKLEI
light: QVQLVQSGAEVRKPGASVKIFCKASGYTFTSYYIHWLRQTPEQGREWIGWIYVGDGNTRYNEKFQGRLTLTADKSTSTAYMELSSLRSADTAIYFCARGGNGYFDYWGQDTLVTVSSDIVMTQTPLSLSVTPGEPASISCRASQDVSTALNWYLQKPGQSPRLLIYWASNRHSGVPDRFSGSGSGTDYTLRISRVEADDVGVYYCQQHYSSSLTFGPGTKLEI
Relative antigen binding (normalized to parental antibody) (relative to parental) [2]: 0.05

B5: antibody #14: 7301 (Felinized HC 3) + 7302 (Felinized LC 1) (antibody, IgG1)
heavy: QVQLVQSGAEVRKPGASVKIFCKASGYTFTSYYIHWLRQTPEQGREWIGWIYVGDGNTRYNEKFQGRLTLTADKSTSTAYMELSSLRSADTAIYFCARGGNGYFDYWGQDTLVTVSSDIVMTQTPLSLSVTPGEPASISCRASQDVSTALNWYLQKPGQSPRLLIYWASNRHSGVPDRFSGSGSGTDYTLRISRVEADDVGVYYCQQHYSSSLTFGPGTKLEI
light: QVQLVQSGAEVRKPGASVKIFCKASGYTFTSYYIHWLRQTPEQGREWIGWIYVGDGNTRYNEKFQGRLTLTADKSTSTAYMELSSLRSADTAIYFCARGGNGYFDYWGQDTLVTVSSDIVMTQTPLSLSVTPGEPASISCRASQDVSTALNWYLQKPGQSPRLLIYWASNRHSGVPDRFSGSGSGTDYTLRISRVEADDVGVYYCQQHYSSSLTFGPGTKLEI
notes: Fully felinized, feline IgG1/kappa; tested as CHO supernatant
Relative antigen binding (normalized to parental antibody) [5]: 0.06 relative to parental
